Measurements from patent publication US20230295327A1.

Target: IL-12 receptor of human T cells (human) (UniProt P42701)
Experiment: cell-based or functional assay

Chain of IL-12 receptor of human T cells (human) (Q99665 24-862, chain 2 of 2, other chains not shown): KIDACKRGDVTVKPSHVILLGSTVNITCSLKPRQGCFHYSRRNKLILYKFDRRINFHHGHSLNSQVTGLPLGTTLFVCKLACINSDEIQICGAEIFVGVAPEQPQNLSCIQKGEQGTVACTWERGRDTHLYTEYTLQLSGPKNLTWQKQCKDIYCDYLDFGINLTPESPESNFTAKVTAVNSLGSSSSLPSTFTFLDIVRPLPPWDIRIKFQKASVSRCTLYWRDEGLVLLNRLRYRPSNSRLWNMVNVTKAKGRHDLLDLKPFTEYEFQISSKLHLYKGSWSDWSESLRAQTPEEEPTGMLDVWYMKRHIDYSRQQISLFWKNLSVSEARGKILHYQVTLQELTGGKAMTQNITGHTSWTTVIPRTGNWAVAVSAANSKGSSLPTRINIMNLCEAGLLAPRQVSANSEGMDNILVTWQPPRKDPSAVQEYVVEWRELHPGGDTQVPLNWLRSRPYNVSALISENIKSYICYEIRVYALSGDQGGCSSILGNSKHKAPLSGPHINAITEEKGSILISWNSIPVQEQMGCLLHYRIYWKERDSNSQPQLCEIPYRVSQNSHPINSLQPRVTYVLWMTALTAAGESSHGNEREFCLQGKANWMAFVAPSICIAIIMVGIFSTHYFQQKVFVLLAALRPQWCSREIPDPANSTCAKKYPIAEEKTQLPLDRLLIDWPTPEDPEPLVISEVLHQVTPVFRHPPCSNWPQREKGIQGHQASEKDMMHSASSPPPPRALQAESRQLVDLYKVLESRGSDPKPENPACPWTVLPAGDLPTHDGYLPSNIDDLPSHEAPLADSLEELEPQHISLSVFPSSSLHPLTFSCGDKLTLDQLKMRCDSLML

p-STAT4 (Tyr693) AlphaLISA in activated human T cells, EC50: 0.195 ng/mL
Substance: recombinant human IL-12 (from UniProt P29459 23-219; P29460 23-328) (ligand)
